Measurements reported in patent publication US9827336B2, “Radio-pharmaceutical complexes” (Bayer AS, priority 2012, dated 2017).

B1: AGC0715: AGC0700 conjugated to high-solubility ligand (12) (conjugate)
heavy: QVQLVQSGAEVKKPGSSVKVSCKASGYTFTDYNMHWVRQAPGQGLEWIGYIYPYNGGTGYNQKFKSKATITADESTNTAYMELSSLRSEDTAVYYCARGRPAMDYWGQGTLVTVSSASTKGPSVFPLAPSSKSTSGGTAALGCLVKDYFPEPVTVSWNSGALTSGVHTFPAVLQSSGLYSLSSVVTVPSSSLGTQTYICNVNHKPSNTKVDKKVEPKSCDKTHTCPPCPAPELLGGPSVFLFPPKPKDTLMISRTPEVTCVVVDVSHEDPEVKFNWYVDGVEVHNAKTKPREEQYNSTYRVVSVLTVLHQDWLNGKEYKCKVSNKALPAPIEKTISKAKGQPREPQVYTLPPSRDELTKNQVSLTCLVKGFYPSDIAVEWESNGGQPENNYKTTPPVLDSDGSFFLYSKLTVDKSRWQQGNVFSCSVMHEALHNHYTQKSLSLSPG
light: DIQMTQSPSSLSASVGDRVTITCRASESVDNYGISFMNWFQQKPGKAPKLLIYAASNQGSGVPSRFSGSGSGTDFTLTISSLQPDDFATYYCQQSKEVPWTFGQGTKVEIKRTVAAPSVFIFPPSDEQLKSGTASVVCLLNNFYPREAKVQWKVDNALQSGNSQESVTEQDSKDSTYSLSSTLTLSKADYEKHKVYACEVTHQGLSSPVTKSFNRGEC
modifications: chelator AGC0015 (12) conjugated; site not stated; none, one or two chelators on a chain
B2: AGC0715-Th-227: AGC0715 antibody-chelator conjugate chelated with Th-227 (conjugate)
heavy: B1 heavy
light: B1 light
modifications: chelator AGC0015 (12) conjugated, chelating Th-227; site not stated

Key:
CD33 = molecular target: T1, CD33 (Homo sapiens, UniProt P20138); assay: Binding to CD33-positive HL-60 cells by flow cytometry; details: FIG. 2
T1 construct: endogenous in cells; host or cells: HL-60 cells
Method: Binding to CD33-positive HL-60 cells were studied by flow cytometry. The determination of EC50 based on the plotted curve gives an approximate value for the affinity. The commercially available mouse anti human CD33 (BD Pharmingen; #555450, 1 mg/mL) was used as a reference antibody for assessment of the affinity, including a setup with a 50:50 mixture with the mAb to be analyzed. This assay was also used to confirm that target binding affinity was not negatively affected by conjugation with the chelator.
HL-60 cells were grown in Iscove's Modified Dulbecco's Medium (IMDM; Invitrogen; #12440-046) in the presence of 20% of fetal bovine serum and penicillin/streptomycin. […] Subsequently, 20 μL of the preparation of resuspended cells was diluted 1:500 in Coulter Isoton II Diluent, and counted using a Beckman Coulter Z2 instrument (Beckman Coulter; CA, USA). […]
The mAb or conjugate to be analyzed was prepared fresh form frozen stock by shifting the storage buffer to PBS, kept at 4° C., and used within a few days after preparation. […]
The cells were washed twice, as described above, and re-suspended in 200 μL PBS, supplemented with 0.1% BSA. All samples were analysed in 96-well round or conical bottom plates. Fluorescent signals were recorded on a Beckham Coulter Cell lab Quant SC flow cytometer (Beckman Coulter; CA, USA). […]

HL-60 tumour [1] = assay: Biodistribution in HL-60 tumour bearing nude mice; details: 15 kBq/animal intravenous, HL-60 xenograft
Text: Female NMRI nude mice were xenografted with cells from the human HL-60 tumour cell line. […] 54 female NMRI nude mice (Taconic, Europe) were used in the study.
The animals were allowed an acclimation period of at least 5 days before entering the study and were at an age of 4 weeks before tumour inoculation. […] Animals were kept in individually ventilated cages (IVC, Scanbur) with HEPA filtered air and had ad libitum access to “Rat and mouse nr.3 Breeding” diet (Scanbur BK) and water acidified by addition of HCl to a molar concentration of 1 mM (pH 3.0). HL-60 cells (ATCC/United Kingdom; Catalog Number CCL-240) were grown and prepared for subcutaneous inoculation in IMDM (Invitrogen; #12440-046) in presence of 20% FCS and penicillin/streptomycin. […]
Animals were euthanized at predetermined time points post injection, and blood, muscle, femur, kidneys, lung, liver, stomach, small intestine, large intestine and tumour were collected. Tissues and blood samples were weighed, and the radioactivity in each sample was measured using gamma spectroscopy (HPGe15p or HPGe50p germanium detectors).
The measured radioactivity (Bq) was related to the radioactivity measured in 10% injection standard samples, and the percentage of Th-227 and Ra-223 were calculated and presented as % ID or % ID per gram of tissue.

HL-60 tumour [2] = test system: HL-60 tumour; parameters: species or system mice; details: mouse, in vivo
Method: Cell preparation and xenografting of female NMRI nude mice are done as described in Example 9. […] The mice have an approximated body weight of approximately 20 grams at the start of the study. […] Mice will be inoculated with tumour cells about 10 days before dosing in order to have mice with average size of tumours in the range from 75-150 mm3. Animals are randomized into 4 treatment groups and 3 control groups (n=10/group).
Mice in the treatment groups are injected into the tail vein with 100 μL containing 75 kBq/mL, 150 kBq/mL, 225 kBq/mL or 300 kBq/mL AGC0715-Th-227, to achieve 250, 500, 750 or 1000 kBq/kg body weight (b.w.). The mice in the control groups are administered either with vehicle only (buffer), non-radioactive antibody (AGC0715) or trastuzumab-Th-227, labelled to a specific activity of 500 kBq/kg (isotype control).
Appearance of tumours will carefully be monitored, and the tumours will be scored (if not large enough to be measured) or measured thrice a week according to the following scheme:
Tumour diameters will be measured in two dimensions using a digital caliper and the volume will be estimated by the following formula: L×W×[…] (Length×Width×½ Width). […] Body weights will be recorded once a week. […]
The mice will be terminated following maximal tumour size of 15 mm diameter. […] In case of observations of adverse clinical signs, these will be recorded as note to files. […]

[3] = test system: CD33 positive HL-60 cells; assay: Th-227-induced cell cytotoxicity (ATP, CellTiter-Glo) in HL-60 cells; format: cell-based, human; details: 3 nM or 0.3 nM, 44 kBq/μg, up to day 7
Method: In vitro cell cytotoxicity was investigated in CD33 positive HL-60 cells. AGC0715 and the control trastuzumab conjugated AGC0015 were used to chelate Th-227 to a specific activity of 44 kBq/μg. HL-60 cells were grown at 37° C. with 5% CO2, and split 1:5 three times a week. The day before the assay the culture medium (Iscove's Modified Dulbecco's Medium (IMDM) with 20% FBS and 1% Penicillin/Streptomycin) was replaced by new medium and the volume adjusted to give 400 000 cells per mL.
About, 1 600 000 cell (4 mL) were added to each well in a 6 well plate. The plate was incubated until next day for addition of labelled mAb, or culture medium. After adding labelled mAb, or culture medium, the plate was incubated for 4 additional hours. In one experiment AGC0715 or trastuzumab-AGC0015 was added to each well to a final concentration of 3 nM. In another experiment the final concentration was 0.3 nM.
Following incubation, the cells were washed twice in culture medium, and the ATP in the supernatant and in the pellet was measured. The cells were then split 1:2 and incubated in culture medium at 37° C. with 5% CO2. The same procedure, but with only one wash, was repeated at days 2, 4, and 7.

T1 sequence (P20138 18-364): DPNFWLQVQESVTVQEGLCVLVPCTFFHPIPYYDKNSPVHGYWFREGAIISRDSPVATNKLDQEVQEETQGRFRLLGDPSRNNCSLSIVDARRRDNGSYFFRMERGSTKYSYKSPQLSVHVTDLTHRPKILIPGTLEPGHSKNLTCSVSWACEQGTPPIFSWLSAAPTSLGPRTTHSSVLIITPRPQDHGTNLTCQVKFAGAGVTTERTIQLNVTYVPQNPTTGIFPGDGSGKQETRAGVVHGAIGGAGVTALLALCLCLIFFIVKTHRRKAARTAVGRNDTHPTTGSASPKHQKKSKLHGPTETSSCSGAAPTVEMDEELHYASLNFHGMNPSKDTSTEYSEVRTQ

Row | Molecule | binding affinity (CD33) | tumour targeting / build-up of radioactivity (HL-60 tumour [1]) | adverse clinical signs (HL-60 tumour [2]) | cellular toxicity (cell viability by ATP) [3]
1 | B1 | comparable to the non-conjugated AGC0700 | Build-up of radioactivity was seen in the tumour, but in no normal tissue |  | 
2 | B2 |  | specific tumour uptake | No adverse clinical sigs | resulted in cellular toxicity
